One substance from publication PMC11162790 can be followed below.

For this data set, the system named is ArsR-P (phosphorylated His6-ArsR) (Helicobacter pylori SMI109). In words: EMSA. As to conditions: Buffer F: 50 mM Tris-acetate pH 7.5, 100 mM K-glutamate, 20 mM Mg-acetate, 5% glycerol, 0.1 ug poly dI-dC, 25 C, 30 min; EMSA 5-7 nM DNA, footprint 25 nM DNA.

On to PsabA SMI109 (T13, wt) 407 bp, for which the K half came out at 1350 nM.
